Results published in article PMC5441850, “Waxy and non-waxy barley cultivars exhibit differences in the targeting and catalytic activity of GBSS1a” (Journal of Experimental Botany, 2017).

Substrate: Nc1ncnc2c1ncn2[C@@H]1O[C@H](COP(=O)(O)OP(=O)(O)O[C@H]2O[C@H](CO)[C@@H](O)[C@H](O)[C@H]2O)[C@@H](O)[C@H]1O
Assay: purified protein
Format: biochemical, Hordeum vulgare
Details: rabbit liver glycogen 1 mg/ml as acceptor, 50 mM Bicine pH 8.5, 25 mM potassium acetate, 2 mM MgCl2, 10 mM DTT, 37 °C

Protein	Km	kcat
HvGBSSIa (Hordeum vulgare; D287V/I559V/M558V) (protein, initial 69 residues (plastid transit peptide) removed; codon-optimized, pET28a 6xHis tag; E. coli Tuner(DE3); HisTrap and Superdex75; mature size 59 kDa; CDC Alamo allele entry AF486519) SATGSGMNLVFVGAEMAPWSKTGGLGDVLGGLPPAMAANGHRVMVVSPRYDQYKDAWDTSVISEIKVADEYERVRFFHCYKRGVDRVFIDHPWFLEKVRGKTKEKIYGPDAGTDYEDNQQRFSLLCQAALEAPRILNLNNNPYFSGPYGEDVVFVCNDWHTGLLACYLKSNYQSNGIYRTAKVAFCIHNISYQGRFSFDDFAQLNLPDRFKSSFDFIVGYDKPVEGRKINWMKAGILQADKVLTVSPYYAEELISGEARGCELDNIMRLTGITGIVNGMDVSEWDPTKDKFLAVNYDITTALEAKALNKEALQAEVGLPVDRKVPLVAFIGRLEEQKGPDVMIAAIPEILKEEDVQIILLGTGKKKFEKLLKSMEEKFPGKVRAVVRFNAPLAHQMMAGADLLAVTSRFEPCGLIQLQGMRYGTPCVCASTGGLVDTIVEGKTGFHMGRLSVDCNVVEPADVKKVATTLKRAVKVVGTPAYQEMVKNCVVQDLSWKGPAKNWEDVLLELGVEGSEPGIVGEEIAPLAMENVAAP	51 ± 10 µM	0.00933 ± 0.0005 s⁻¹
HvGBSSIa (Hordeum vulgare; I559V) (protein, initial 69 residues (plastid transit peptide) removed; codon-optimized, pET28a 6xHis tag; E. coli Tuner(DE3); HisTrap and Superdex75; mature size 59 kDa; CDC Alamo allele entry AF486519) SATGSGMNLVFVGAEMAPWSKTGGLGDVLGGLPPAMAANGHRVMVVSPRYDQYKDAWDTSVISEIKVADEYERVRFFHCYKRGVDRVFIDHPWFLEKVRGKTKEKIYGPDAGTDYEDNQQRFSLLCQAALEAPRILNLNNNPYFSGPYGEDVVFVCNDWHTGLLACYLKSNYQSNGIYRTAKVAFCIHNISYQGRFSFDDFAQLNLPDRFKSSFDFIDGYDKPVEGRKINWMKAGILQADKVLTVSPYYAEELISGEARGCELDNIMRLTGITGIVNGMDVSEWDPTKDKFLAVNYDITTALEAKALNKEALQAEVGLPVDRKVPLVAFIGRLEEQKGPDVMIAAIPEILKEEDVQIILLGTGKKKFEKLLKSMEEKFPGKVRAVVRFNAPLAHQMMAGADLLAVTSRFEPCGLIQLQGMRYGTPCVCASTGGLVDTIVEGKTGFHMGRLSVDCNVVEPADVKKVATTLKRAVKVVGTPAYQEMVKNCMVQDLSWKGPAKNWEDVLLELGVEGSEPGIVGEEIAPLAMENVAAP	114 ± 15 µM	0.112 ± 0.005 s⁻¹
HvGBSSIa (Hordeum vulgare; I559V/M558V) (protein, initial 69 residues (plastid transit peptide) removed; codon-optimized, pET28a 6xHis tag; E. coli Tuner(DE3); HisTrap and Superdex75; mature size 59 kDa; CDC Alamo allele entry AF486519) SATGSGMNLVFVGAEMAPWSKTGGLGDVLGGLPPAMAANGHRVMVVSPRYDQYKDAWDTSVISEIKVADEYERVRFFHCYKRGVDRVFIDHPWFLEKVRGKTKEKIYGPDAGTDYEDNQQRFSLLCQAALEAPRILNLNNNPYFSGPYGEDVVFVCNDWHTGLLACYLKSNYQSNGIYRTAKVAFCIHNISYQGRFSFDDFAQLNLPDRFKSSFDFIDGYDKPVEGRKINWMKAGILQADKVLTVSPYYAEELISGEARGCELDNIMRLTGITGIVNGMDVSEWDPTKDKFLAVNYDITTALEAKALNKEALQAEVGLPVDRKVPLVAFIGRLEEQKGPDVMIAAIPEILKEEDVQIILLGTGKKKFEKLLKSMEEKFPGKVRAVVRFNAPLAHQMMAGADLLAVTSRFEPCGLIQLQGMRYGTPCVCASTGGLVDTIVEGKTGFHMGRLSVDCNVVEPADVKKVATTLKRAVKVVGTPAYQEMVKNCVVQDLSWKGPAKNWEDVLLELGVEGSEPGIVGEEIAPLAMENVAAP	56 ± 8 µM	0.0157 ± 0.00067 s⁻¹
HvGBSSIa (Hordeum vulgare; M558V) (protein, initial 69 residues (plastid transit peptide) removed; codon-optimized, pET28a 6xHis tag; E. coli Tuner(DE3); HisTrap and Superdex75; mature size 59 kDa; CDC Alamo allele entry AF486519) SATGSGMNLVFVGAEMAPWSKTGGLGDVLGGLPPAMAANGHRVMVVSPRYDQYKDAWDTSVISEIKVADEYERVRFFHCYKRGVDRVFIDHPWFLEKVRGKTKEKIYGPDAGTDYEDNQQRFSLLCQAALEAPRILNLNNNPYFSGPYGEDVVFVCNDWHTGLLACYLKSNYQSNGIYRTAKVAFCIHNISYQGRFSFDDFAQLNLPDRFKSSFDFIDGYDKPVEGRKINWMKAGILQADKVLTVSPYYAEELISGEARGCELDNIMRLTGITGIVNGMDVSEWDPTKDKFLAVNYDITTALEAKALNKEALQAEVGLPVDRKVPLVAFIGRLEEQKGPDVMIAAIPEILKEEDVQIILLGTGKKKFEKLLKSMEEKFPGKVRAVVRFNAPLAHQMMAGADLLAVTSRFEPCGLIQLQGMRYGTPCVCASTGGLVDTIVEGKTGFHMGRLSVDCNVVEPADVKKVATTLKRAVKVVGTPAYQEMVKNCVIQDLSWKGPAKNWEDVLLELGVEGSEPGIVGEEIAPLAMENVAAP	71 ± 7 µM	0.353 ± 0.01 s⁻¹
HvGBSSIa (Hordeum vulgare; D287V) (protein, initial 69 residues (plastid transit peptide) removed; codon-optimized, pET28a 6xHis tag; E. coli Tuner(DE3); HisTrap and Superdex75; mature size 59 kDa; CDC Alamo allele entry AF486519) SATGSGMNLVFVGAEMAPWSKTGGLGDVLGGLPPAMAANGHRVMVVSPRYDQYKDAWDTSVISEIKVADEYERVRFFHCYKRGVDRVFIDHPWFLEKVRGKTKEKIYGPDAGTDYEDNQQRFSLLCQAALEAPRILNLNNNPYFSGPYGEDVVFVCNDWHTGLLACYLKSNYQSNGIYRTAKVAFCIHNISYQGRFSFDDFAQLNLPDRFKSSFDFIVGYDKPVEGRKINWMKAGILQADKVLTVSPYYAEELISGEARGCELDNIMRLTGITGIVNGMDVSEWDPTKDKFLAVNYDITTALEAKALNKEALQAEVGLPVDRKVPLVAFIGRLEEQKGPDVMIAAIPEILKEEDVQIILLGTGKKKFEKLLKSMEEKFPGKVRAVVRFNAPLAHQMMAGADLLAVTSRFEPCGLIQLQGMRYGTPCVCASTGGLVDTIVEGKTGFHMGRLSVDCNVVEPADVKKVATTLKRAVKVVGTPAYQEMVKNCMIQDLSWKGPAKNWEDVLLELGVEGSEPGIVGEEIAPLAMENVAAP	127 ± 9 µM	0.046 ± 0.001 s⁻¹
HvGBSSIa (Hordeum vulgare) (protein, initial 69 residues (plastid transit peptide) removed; codon-optimized, pET28a 6xHis tag; E. coli Tuner(DE3); HisTrap and Superdex75; mature size 59 kDa; CDC Alamo allele entry AF486519) SATGSGMNLVFVGAEMAPWSKTGGLGDVLGGLPPAMAANGHRVMVVSPRYDQYKDAWDTSVISEIKVADEYERVRFFHCYKRGVDRVFIDHPWFLEKVRGKTKEKIYGPDAGTDYEDNQQRFSLLCQAALEAPRILNLNNNPYFSGPYGEDVVFVCNDWHTGLLACYLKSNYQSNGIYRTAKVAFCIHNISYQGRFSFDDFAQLNLPDRFKSSFDFIDGYDKPVEGRKINWMKAGILQADKVLTVSPYYAEELISGEARGCELDNIMRLTGITGIVNGMDVSEWDPTKDKFLAVNYDITTALEAKALNKEALQAEVGLPVDRKVPLVAFIGRLEEQKGPDVMIAAIPEILKEEDVQIILLGTGKKKFEKLLKSMEEKFPGKVRAVVRFNAPLAHQMMAGADLLAVTSRFEPCGLIQLQGMRYGTPCVCASTGGLVDTIVEGKTGFHMGRLSVDCNVVEPADVKKVATTLKRAVKVVGTPAYQEMVKNCMIQDLSWKGPAKNWEDVLLELGVEGSEPGIVGEEIAPLAMENVAAP	160 ± 15 µM	0.0967 ± 0.0033 s⁻¹
